From US10202593B2, “Evolved sortases and uses thereof” (President and Fellows of Harvard College, priority 2013, dated 2019)
Read-outs that look alike come from different tables or passages of the source.

B1: eSrtA (protein)
chain: QAKPQIPKDKSKVAGYIEIPDADIKEPVYPGPATREQLNRGVSFAEENESLDDQNISIAGHTFIDRPNYQFTNLKAAKKGSMVYFKVGNETRKYKMTSIRNVKPTAVEVLDEQKGKDKQLTLITCDDYNEETGVWETRKIFVATEVK
B2: eSrtA(2A-9): P94R, S102C, A104H, E105D, K138P, K152I, N160K, K162H, T164N, D165A, K173E, I182V, K190E, T196S (protein)
chain: QAKPQIPKDKSKVAGYIEIPDADIKEPVYPGPATREQLNRGVCFHDENESLDDQNISIAGHTFIDRPNYQFTNLKAAKPGSMVYFKVGNETRIYKMTSIRKVHPNAVEVLDEQEGKDKQLTLVTCDDYNEETGVWESRKIFVATEVK

Tests used:
[1] = target: T1, LPETG (Abz-LPETGK(Dnp)-CONH2) (Staphylococcus aureus, UniProt Q2FV99, D160N/D165A/K190E/K196T/P94R); assay: In vitro sortase kinetics HPLC assay, LPETG substrate; assay type: biochemical; details: cognate LPETG substrate
T1 construct: All expressed sortases lack the N-terminal 59 amino acids; inferred from Ni-NTA purification; made in house; host or cells: E. coli BL21 (DE3), pET29
T1 sequence (Q2FV99 60-206 P94R/D160N/D165A/G167E/K190E/K196T): B1 chain
Procedure, shortened: (§1)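 Abz-LXEXGK(Dnp) peptides in 300 mM Tris pH 7.5, 150 mM NaCl, 5 mM CaCl2, 5% DMSO, GGG; 22.5° C., acid-quenched, converted fraction by reverse-phase HPLC peak areas. kcat and Km from eight substrate concentrations fit to Michaelis-Menten; KH at 1 mM substrate over eight GGG levels.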

[2] = target: T2, LAETG (Abz-LAETGK(Dnp)-CONH2) (Staphylococcus aureus, UniProt Q2FV99, D160N/D165A/K190E/K196T/P94R); assay: In vitro sortase kinetics HPLC assay, LAETG substrate; assay type: biochemical; details: candidate LAETG target
T2 construct: All expressed sortases lack the N-terminal 59 amino acids; inferred from Ni-NTA purification; made in house; host or cells: E. coli BL21 (DE3), pET29
T2 sequence (Q2FV99 60-206 P94R/D160N/D165A/G167E/K190E/K196T): B1 chain
Procedure, shortened: as §1

[3] = target: T3, LPESG (Abz-LPESGK(Dnp)-CONH2) (Staphylococcus aureus, UniProt Q2FV99, D160N/D165A/K190E/K196T/P94R); assay: In vitro sortase kinetics HPLC assay, LPESG substrate; assay type: biochemical; details: ratio of kcat/KM
T3 construct: All expressed sortases lack the N-terminal 59 amino acids; inferred from Ni-NTA purification; made in house; host or cells: E. coli BL21 (DE3), pET29
T3 sequence (Q2FV99 60-206 P94R/D160N/D165A/G167E/K190E/K196T): B1 chain
Procedure, shortened: as §1

[4] = test system: LPETG (Abz-LPETGK(Dnp)-CONH2); details: cited from earlier work
[5] = target: T4, LRETG (Staphylococcus aureus, UniProt Q2FV99, A104H/D160K/D165A/E105D/I182V/K138P/K152I/K162H/K173E/K190E/K196S/P94R/S102C/T164N); assay: In vitro sortase kinetics HPLC assay, LRETG substrate; assay type: biochemical
T4 construct: All expressed sortases lack the N-terminal 59 amino acids; inferred from Ni-NTA purification; made in house; host or cells: E. coli BL21 (DE3), pET29
T4 sequence (Q2FV99 60-206 P94R/S102C/A104H/E105D/K138P/K152I/D160K/K162H/T164N/D165A/G167E/K173E/I182V/K190E/K196S): B2 chain
Description: See below for details on sortase expression and purification, and on the synthesis of Abz-LPETGK(Dnp)-CONH2 (SEQ ID NO: 19). […] Reactions were initiated with the addition of enzyme and incubated at 22.5° C. for 3 to 20 minutes before quenching with 0.5 volumes of 1 M HCl. Five to ten nmol of peptide from the quenched reactions were injected onto an analytical reverse-phase Eclipse XDB-C18 HPLC column (4.6×150 mm, 5 μm, Agilent Technologies) and chromatographed using a gradient of 10 to 65% acetonitrile with 0.1% TFA in 0.1% aqueous TFA over 13 minutes. Retention times under these conditions for the Abz-LPETGK(Dnp)-CONH2 (SEQ ID NO: 19) substrate, the released GKDnp peptide, and the Abz-LPETGGG-COOH (SEQ ID NO: 20) product were 12.8, 10.4, and 9.1 min, respectively. To calculate the percent conversion, the ratio of the integrated areas of the Abz-LPETGGG-COOH (SEQ ID NO: 20) and Abz-LPETGK(Dnp)-CONH2 (SEQ ID NO: 19) peptide Abs220 peaks was compared to a standard curve generated by mixing the product and starting peptide in known ratios. To determine […] and Km, reaction rates were fit to the Michaelis-Menten equation using OriginPro 7.0 software. All kinetics values reported represent the average of at least three measurements. Percent conversion was also calculated by using the ratio of the integrated areas of the GK(Dnp)-CONH2 and Abz-LPETGK(Dnp)-CONH2 peptide Abs355 peaks were compared directly (Example 5). To determine kcat and Km, LPETG, reaction rates were fit to the Michaelis-Menten equation using Microsoft Excel using the Solver add-in. To determine Km,GGG and KH, reaction rates were fit to the modified Michaelis-Menten, for which KH is as defined when KH<<Km,GGG.
Assays to determine eSrtA, eSrtA(2A-9) and eSrtA(4S-9) specificity were performed by preparing 10 μM stocks of Abz-LXEXGK(Dnp) (SEQ ID NO: 75) peptides in 300 mM Tris pH 7.5, 150 mM NaCl, 5 mM CaCl2, 5% v/v DMSO, and 100 mM Gly-Gly-Gly-COOH (GGG). Reactions were performed by adding eSrtA(2A-9) to a final concentration of 450 nM, eSrtA(4S-9) to a final concentration of 115 nM or eSrtA to a final concentration of 47.5 nM and a final volume of 100 μL, then incubating at 22.5° C. for 15 minutes. Reactions were quenched by the addition of 0.2 volumes of 5 M HCl, then were injected onto an analytical reverse-phase Eclipse XDB-C18 HPLC column (4.6×150 mm, 5 μm, Agilent Technologies) and chromatographed using a gradient of 10 to 65% acetonitrile with 0.1% TFA in 0.1% aqueous TFA over 13 minutes. […]

Molecule | Km [1] [µM] | Km [2] [µM] | preference for LPETG over LPESG [3] [fold] | higher catalytic activity relative to wild-type SrtA [4] | KH ([5]; 1 mM LRETG) [µM] | Km ([5]; 1 mM LRETG, read-out: Km,GGG) [µM] | Kcat (Hz) ([5]; Sub LRETG, 100 mM GGG) | Km ([5]; Sub LRETG, 100 mM GGG, read-out: Km) [µM]
B1 | 200 | 6100 | 5 | approximately 140 fold | – | – | – | –
B2 | – | – | – | – | 47.5 ± 1.3 | 628 ± 11 | 0.25 ± 0.02 | 1070 ± 63
